From patent US20210284749A1 (ABL BIO, published 2021)
Changes are numbered by the printed parent chain.

B1: anti-BCMA IgG antibody 5B5 (antibody, V domains shown)
VH: EVQLLESGGGLVQPGGSLRLSCAASGFTFSGHYWSWVRQAPGKGLEWVSTVSGSGGDTFYADSVKGRFTISRDNSKNTLYLQMNSLRAEDTAVYYCARGHSVMDVWGQGTLVTVSS
VL: EIVLTQSPGTLSLSPGERATLSCRASQGIDSYVAWYQQKPGQAPRLLIYDASLRATGIPDRFSGSGSGTDFTLTISRLEPEDFAVYYCQQYNSWPITFGQGTKLEIKR
notes: also called 5B5 antibody
B2: anti-BCMA IgG antibody 4H9 (antibody, V domains shown)
VH: EVQLLESGGGLVQPGGSLRLSCAASGFTFSGYSMSWVRQAPGKGLEWVSSIYHTGYTYYNPSLKSRFTISRDNSKNTLYLQMNSLRAEDTAVYYCARYKSGAFDIWGQGTLVTVSS
VL: EIVLTQSPGTLSLSPGERATLSCRASQSVSRNLAWYQQKPGQAPRLLIYGVSSRATGIPDRFSGSGSGTDFTLTISRLEPEDFAVYYCQQYGSSPPTFGQGTKVEIKR
B3: anti-BCMA IgG antibody 1H (antibody, V domains shown)
VH: EVQLVESGGGLVQPGGSLRLSCAASGFTFSNYAMSWVRQAPGKGLEWVSGISHSGSSTYYADSVKGRFTISRDNSKNTLYLQMNSLRAEDTAVYYCAKHVYIIEFESLDIWGQGTLVTVSS
VL: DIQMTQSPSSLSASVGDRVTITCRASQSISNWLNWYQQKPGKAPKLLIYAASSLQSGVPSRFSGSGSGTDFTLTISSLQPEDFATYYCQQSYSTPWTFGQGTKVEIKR
B4: anti-BCMA IgG antibody 5G (antibody, V domains shown)
VH: B3 VH with H53Q, V100A, L108M
VL: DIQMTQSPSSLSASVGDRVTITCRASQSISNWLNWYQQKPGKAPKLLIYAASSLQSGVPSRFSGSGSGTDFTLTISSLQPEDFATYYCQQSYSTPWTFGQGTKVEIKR
B5: anti-BCMA IgG antibody 2G (antibody, V domains shown)
VH: EVQLVESGGGLVQPGGSLRLSCAASGFTFSNYAMSWVRQAPGKGLEWVSAISSSGSTIYYADSVKGRFTISRDNSKNTLYLQMNSLRAEDTAVYYCAKAGYYGSIYAFDYWGQGTLVTVSS
VL: DIQMTQSPSSLSASVGDRVTITCRASQSISSYLNWYQQKPGKAPKLLIYATSRLQSGVPSRFSGSGSGTDFTLTISSLQPEDFATYYCQQSSSFPWTFGQGTKVEIKR
B6: anti-BCMA IgG antibody 5C3 (antibody, V domains shown)
VH: EVQLLESGGGLVQPGGSLRLSCAASGFTFSDYYIHWVRQAPGKGLEWVSAISGSGGSTYYADSVKGRFTISRDNSKNTLYLQMNSLRAEDTAVYYCASDLGDTTFDSWGQGTLVTVSS
VL: EIVLTQSPGTLSLSPGERATLSCQASDDISNYLNWYQQKPGQAPRLLIYGVSNRASGIPDRFSGSGSGTDFTLTISRLEPEDFAVYYCQQSYSTPPITFGQGTKLEIKR
B7: anti-BCMA IgG antibody 2F8 (antibody, V domains shown)
VH: EVQLLESGGGLVQPGGSLRLSCAASGFTFSNYGMSWVRQAPGKGLEWVSEIIPIFDTSNYAQKFQGRFTISRDNSKNTLYLQMNSLRAEDTAVYYCAKIPGNRHDYWGQGTLVTVSS
VL: QSVLTQPPSASGTPGQRVTISCTRMQRQSDWYQQLPGTAPKLLIYDNNKRPLGVPDRFSGSKSGTSASLAISGLRSEDEADYYCQSYDSNAYVVFGGGTKLTVLG

How the values were obtained:
human BCMA-Fc/His (1-51) = target: T1, human BCMA-Fc/His (1-51) (human, UniProt Q02223 1-51); test: BLI (Octet), antigen on Ni-NTA biosensor, IgG in solution
T1 construct: also called recombinant human BCMA-Fc/His; recombinant human BCMA-His (Sino Biological Inc.); not shown: Fc region; C-terminal His tag
T1 sequence: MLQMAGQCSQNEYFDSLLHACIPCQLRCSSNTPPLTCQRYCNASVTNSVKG
Experimental: A 96-well black microplate was mounted on a Biosensor tray case, 200 μl of 1XKB was added to each of the 8 wells, and then 8 Ni-NTA biosensors (Fortebio) were inserted thereto for hydration for 10 minutes. For antigen fixation, 5 μg/ml of recombinant human BCMA-His (Sino Biological Inc.) was diluted using 1XKB. Experiments were performed with a threshold of 0.5 to 1.0 nm, and Octet Data Acquisition 9.0 software was activated to create an Octet program template. The first step was for Baseline 1, the second step was for loading, and the threshold was fixed to 0.5 to 1.0 nm. In the third step, which was for Baseline 2, association for 5 minutes and dissociation for 20 minutes were performed. A plate temperature was fixed to 30° C., and the prepared buffer solution was placed in order into a new 96-well black microplate according to the Octet program template. 200 μl of 1XKB used as Baseline 1 and recombinant human BCMA-Fc/His which is an antigen to be loaded were diluted to 5 μg/ml, and 200 μl of the dilution was added thereto. After adding 200 μl of 1XKB used as Baseline 2, 200 μl of the antibody to be reacted with the antigen was dispensed, and the instrument was operated. After completion of the experiment, an association constant (kon), a dissociation constant (kdis), and an equilibrium dissociation constant (KD) for each antibody were analyzed and calculated with Octet Analysis 9.0 software.

[1] = target: T2, monkey (Rhesus) BCMA (1-53) fused to the Fc region of human IgG1 (monkey (Rhesus); human, UniProt Q02223 1-54); test: ELISA on 100 ng coated rhesus BCMA, antibody titrated, anti-human Fab HRP, absorbance 450 nm
T2 construct: Sino Biological Inc. 90103-C02H; also called monkey BCMA; Monkey BCMA (1-53); not shown: Fc region of human IgG1
Experimental: (§1) 100 ng of human, monkey, mouse, and rat BCMA antigens prepared in Example 1.1 were coated on the bottom of the plate, and then coated with 3% BSA to block nonspecific binding. Using the selected anti-BCMA IgG antibodies as primary antibodies, and the anti-human Fab HRP (1:20000 dilution) as a secondary antibody, ELISA assay was performed as described in Example 1.3.
(§2) Absorbancies at 450 nm measured with a microplate reader are shown in FIG. 3, and half maximal effective concentrations (EC₅₀) (nM) are shown in Table 9.

[2] = target: T3, rat BCMA (1-49) fused to the Fc region of human IgG1 (rat; human); test: ELISA on 100 ng coated rat BCMA, antibody titrated, anti-human Fab HRP, absorbance 450 nm
T3 construct: Sino Biological Inc. 80156-R01H; also called 80156-R01H; not shown: Fc region of human IgG1
T3 chain: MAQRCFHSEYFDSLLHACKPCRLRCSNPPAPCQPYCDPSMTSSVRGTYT
Experimental: as §1, §2

[3] = target: T4, mouse BCMA (1-49) fused to the Fc region of human IgG1 (mouse; human, UniProt O88472 1-49); test: ELISA on 100 ng coated mouse BCMA, antibody titrated, anti-human Fab HRP, absorbance 450 nm
T4 construct: Sino Biological Inc. 50076-M01H; also called 50076-M01H; not shown: Fc region of human IgG1
T4 chain: T3 chain with R4Q, R22H, P31T, M40V, R45K
Experimental: as §1, §2

[4] = target: T5, recombinant human BCMA (ELISA antigen, construct not specified) (human, UniProt Q02223 1-54); test: ELISA on coated recombinant human BCMA, antibody titrated, HRP anti-Fab detection, absorbance 450 nm
T5 construct: Fc 1-51; Fc/His 1-51; Fc 4-48) was coated in these ELISAs; also called recombinant BCMA; recombinant protein
T5 sequence: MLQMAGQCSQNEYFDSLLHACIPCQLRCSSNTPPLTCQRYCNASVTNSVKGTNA
Experimental: Specific binding abilities of the anti-BCMA IgG antibodies isolated in Example 1.4 to recombinant BCMA protein were analyzed by ELISA.
(§3) Using recombinant human BCMA or monkey BCMA as an antigen, and HRP-conjugated Fab polychronal antibody reagent (Pierce, 31414) as a secondary antibody, ELISA was performed as described in Example 1.3.

[5] = target: T5, recombinant human BCMA (ELISA antigen, …); test: ELISA on 100 ng coated human BCMA, antibody titrated, anti-human Fab HRP, absorbance 450 nm
Experimental: as §1, §2

[6] = target: T2, monkey (Rhesus) BCMA (1-53) fused to …; test: BLI (Octet), monkey BCMA
[7] = target: T2, monkey (Rhesus) BCMA (1-53) fused to …; test: ELISA, 100 ng coated antigen
Experimental: as §1, §2

[8] = target: T3, rat BCMA (1-49) fused to the Fc region …; test: ELISA, 100 ng coated antigen
Experimental: as §1, §2

[9] = target: T4, mouse BCMA (1-49) fused to the Fc …; test: ELISA, 100 ng coated antigen
Experimental: as §1, §2

[10] = target: T5, recombinant human BCMA (ELISA antigen, …); test: ELISA, 100 ng coated antigen
Experimental: as §1, §2

[11] = target: T6, human BCMA expressed on cell surface (H929, OPM-2, CHOK1-hBCMA cells) (human, UniProt Q02223 1-184); test: FACS on OPM-2 cells, 10 µg/ml antibody, anti-human Fc-FITC; open histogram shifted right of the filled control
T6 construct: also called cell-surface BCMA; BCMA on cell surface
T6 sequence: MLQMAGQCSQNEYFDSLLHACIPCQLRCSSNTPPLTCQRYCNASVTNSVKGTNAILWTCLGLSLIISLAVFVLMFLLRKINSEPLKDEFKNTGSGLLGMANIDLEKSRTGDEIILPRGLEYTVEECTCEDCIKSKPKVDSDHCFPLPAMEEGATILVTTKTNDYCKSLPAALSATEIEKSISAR
Experimental: (§4) Multiple myeloma cancer cells H929 (ATCC, CRL9068™) and OPM-2 cell line (DSMZ, ACC 50), which are known to express BCMA, were prepared, and human BCMA-overexpressed CHOK1-hBCMA cell line (constructed by ABIBio) were prepared.
(§5) 10 μg/ml of the seven IgG antibodies (B58, 5A6, 5D5, 5B5, 1H, 2G, and 5G) purified in Example 1.4 was added to the prepared cells, incubated at 4° C. for 1 hour, and then washed two times with a PBS buffer solution. The anti-human Fc-FITC was diluted in 1:400, incubated at 4° C. for 1 hour, and then washed with a PBS buffer solution. These processes were repeated. In FIGS. 2A and 2B, MFI indicates mean fluorescence intensity.

[12] = target: T6, human BCMA expressed on cell surface …; test: FACS on H929 cells, 10 µg/ml antibody, anti-human Fc-FITC; open histogram shifted right of the filled control
Experimental: as §4, §5

[13] = target: T2, monkey (Rhesus) BCMA (1-53) fused to …; test: ELISA on coated monkey (Rhesus) BCMA, antibody titrated, HRP anti-Fab detection, absorbance 450 nm
Experimental: as §3

[14] = target: T5, recombinant human BCMA (ELISA antigen, …); test: ELISA on coated recombinant human BCMA, antibody titrated, HRP anti-Fab detection, absorbance 450 nm; remark: listed apart in the source
Experimental: as §3

Binder	Kd (human BCMA-Fc/His (1-51)) [nM]	koff (human BCMA-Fc/His (1-51)) [s⁻¹]	kon (human BCMA-Fc/His (1-51)) [M⁻¹ s⁻¹]	EC50 (read off the curve) [4] [µg/mL]	further results
B1	0.202	0.00025	1.24e+06	~0.1	EC50 (read off the curve) [1]: ~0.01 µg/mL; EC50 (read off the curve) [2]: ~0.02 µg/mL; EC50 (read off the curve) [3]: ~0.01 µg/mL; EC50 (read off the curve) [5]: ~0.01 µg/mL; Kd [6]: 0.461 nM; koff [6]: 0.00221 s⁻¹; kon [6]: 4.79e+06 M⁻¹ s⁻¹; EC50 [7]: 82 nM; EC50 [8]: 65 nM; EC50 [9]: 110 nM; EC50 [10]: 63 nM; MFI [11]: 20.9; MFI [12]: 37.4
B2	1.29	0.00179	1.38e+06	~0.01	–
B3	1.45	0.000592	409000	–	EC50 (read off the curve) [13]: ~0.2 µg/mL; EC50 (read off the curve) [14]: ~0.08 µg/mL
B4	361	0.0143	39700	–	binding result [13]: binds
B5	1.08	0.00078	720000	–	binding result [13]: binds; EC50 (read off the curve) [14]: ~0.04 µg/mL
B6	16.4	0.00966	591000	~0.9	–
B7	104	0.0152	147000	~0.07	–
